The values that follow come from patent US20100204091A1 (YEDA RESEARCH AND DEVELOPMENT, published 2010).

Assay [1] concerns the target T1, FLAG tagged TRAF2 (UniProt Q12933 1-501).
T1 construct: For in vitro assays purified on anti-FLAG M2 beads and eluted with FLAG peptide; also called FLAG-TRAF2
T1 sequence (looked up): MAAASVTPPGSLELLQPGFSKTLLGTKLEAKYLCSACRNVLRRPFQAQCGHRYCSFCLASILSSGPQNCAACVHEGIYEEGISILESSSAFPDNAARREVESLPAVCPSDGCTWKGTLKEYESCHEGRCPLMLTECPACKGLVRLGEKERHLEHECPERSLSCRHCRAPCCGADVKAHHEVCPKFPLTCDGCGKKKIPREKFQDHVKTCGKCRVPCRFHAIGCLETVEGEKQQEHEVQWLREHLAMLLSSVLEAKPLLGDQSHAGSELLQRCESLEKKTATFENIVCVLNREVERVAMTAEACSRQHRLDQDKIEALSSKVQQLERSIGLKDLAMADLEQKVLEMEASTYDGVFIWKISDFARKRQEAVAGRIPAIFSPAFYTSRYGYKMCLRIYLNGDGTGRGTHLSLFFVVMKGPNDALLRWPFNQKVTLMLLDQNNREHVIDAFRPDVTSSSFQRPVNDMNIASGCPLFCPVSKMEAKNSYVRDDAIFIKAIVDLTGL
In words: in vitro incubation of eluted FLAG TRAF2 with bacterial GST tagged SIVA2, anti-FLAG IP, anti SIVA blot. The method, then: (§1) In order to explore whether TRAF2 binds to SIVA2, FLAG tagged TRAF2 was immuno-precipitated from transfected […] cells using anti-FLAG M2 beads. TRAF2 was eluted from the beads using FLAG peptide. The eluted FLAG tagged TRAF2 was incubated with recombinant (bacterially expressed) GST tagged SIVA2 or GST tagged ring finger mutant SIVA2 at 30° C. for one hour in a volume of 50 μl of buffer (30 mM HEPES, pH 7.6, 5 mM MgCl2, 0.2 mM DTT). Next, the binding mix was diluted to 1 ml to attain the following composition −30 mM HEPES, 5 mM MgCl2, 0.2 mM DTT, 150 mM NaCl, 1% Triton X100 and 1 mM EDTA. Immunoprecipitation was carried out with anti-FLAG for TRAF2 and Western blotting analysis was carried out with anti SIVA to detect coprecipitating SIVA. […] The latter was confirmed in the following experiment. HEK 293T cells were co-transfected with 12 ug of HIS-SIVA2 or deletions of SIVA2 lacking the ring finger (SIVA2 1-58 and SIVA 1-81) and FLAG-TRAF2 by calcium phosphate method. 24 hours post transfection; cells were harvested and lysed in 1% Triton containing lysis buffer. TRAF2 was immunoprecipitated using anti FLAG-M2 beads and coprecipitated SIVA2 was probed by Western blotting using anti HIS antibody. Total lysis in FIG. 11D show the expression levels of the proteins. […] (FIG. 11D).

The target of assay [2] is T2, NF-κB-inducing kinase, NIK, (MAP3K14) (human, UniProt Q99558 1-947).
T2 construct: in yeast two-hybrid used as bait fusion; also called myc-NIK; wild type NIK
In words: co-immunoprecipitation from transfected cells (deletion analysis).

Assay [3] has as its target T1, FLAG tagged TRAF2. In words: co-immunoprecipitation with anti FLAG-M2 beads from transfected HEK 293T cells, anti HIS blot. How it is done:
as §1

Assay [4] concerns the target T2, NF-κB-inducing kinase, NIK, (MAP3K14). In words: yeast two-hybrid, human bone-marrow library, NIK as bait. How it is done:
Yeast two-hybrid screening: The system used for screening was the Matchmaker version III (clontech). The prey was pre-transformed human bone marrow library (cat# HY4053AH) that offers high stringent quadruple drop out (QDO) selection along with a-gal assay. Clones growing on plates without LEU, TRP, HIS and ADE were reconfirmed by a-gal assay, which is much more specific than the usual, often leaky, b-gal assay. Plasmids of the positive clones were prepared as follows. Single clones were inoculated into QDO liquid broth and grown overnight at 37° C. Cells were pelleted at 10,000 g and resuspended in 200 μl of buffer containing 2% Triton X-100, 1% SDS, 100 mM NaCl, 10 mM Tris pH8.0, and 1 mM EDTA. The lysates were vortexed for 2 min after adding 200 μl of phenol: chloroform: isoamyl alcohol (25:24:1) and 0.3 g of 600 microns acid washed glass beads (Sigma). Supernatant was collected by centrifugation at 12,000 g and the DNA was precipitated by sodium acetate/ethanol precipitation method (Sambrook et al., 1989). Encoded inserts from the plasmids were amplified by PCR with the primers specific for the library vector pACT2. For further biochemical analysis of individual clones, the amplicons were directly cloned into the N-terminally HIS tagged mammalian expression vector pcDNA3.1 (Invitrogen).

No end group written: not given here.

T2 sequence (Q99558 whole entry, the tested form may be a part): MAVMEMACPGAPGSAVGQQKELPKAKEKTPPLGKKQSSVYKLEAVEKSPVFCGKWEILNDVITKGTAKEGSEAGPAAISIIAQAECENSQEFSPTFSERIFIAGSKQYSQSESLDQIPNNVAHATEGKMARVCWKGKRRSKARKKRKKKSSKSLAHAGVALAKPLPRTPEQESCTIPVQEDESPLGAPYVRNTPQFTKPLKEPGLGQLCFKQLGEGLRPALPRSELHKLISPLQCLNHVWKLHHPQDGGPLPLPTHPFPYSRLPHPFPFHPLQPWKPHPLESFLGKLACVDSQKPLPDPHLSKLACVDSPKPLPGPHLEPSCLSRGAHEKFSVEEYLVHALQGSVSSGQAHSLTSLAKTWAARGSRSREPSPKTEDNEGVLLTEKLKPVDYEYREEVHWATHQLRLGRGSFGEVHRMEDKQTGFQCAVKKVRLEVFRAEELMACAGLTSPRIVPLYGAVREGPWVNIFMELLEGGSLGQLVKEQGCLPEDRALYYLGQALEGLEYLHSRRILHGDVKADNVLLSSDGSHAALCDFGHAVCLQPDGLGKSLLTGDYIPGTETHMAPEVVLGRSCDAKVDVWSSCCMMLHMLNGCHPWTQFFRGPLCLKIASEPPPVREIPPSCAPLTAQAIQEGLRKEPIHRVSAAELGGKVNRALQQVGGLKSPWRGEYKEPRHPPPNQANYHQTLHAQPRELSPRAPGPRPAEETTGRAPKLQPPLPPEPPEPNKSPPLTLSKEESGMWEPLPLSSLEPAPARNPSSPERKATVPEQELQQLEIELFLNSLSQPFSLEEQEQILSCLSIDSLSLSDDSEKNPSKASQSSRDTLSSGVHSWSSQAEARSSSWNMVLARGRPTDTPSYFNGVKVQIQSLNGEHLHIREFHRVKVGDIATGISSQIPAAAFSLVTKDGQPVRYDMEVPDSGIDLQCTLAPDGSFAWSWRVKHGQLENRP

B1: GST-SIVA2 (bacterially expressed GST tagged SIVA2) (other)
chain: MPKRSCPFADVAPLQLKVRVSQRELSRGVCAERYSQEVFDPSGVASIACSSCVRAVDGKAVCGQCERALCGQCVRTCWGCGSVACTLCGLVDCSDMYEKVLCTSCAMFET
notes: Cloned into pGEX and expressed in BL-21 cells; also called recombinant GST-SIVA; recombinant SIVA2; not shown: glutathione S-transferase tag of the pGEX vector
For the molecule B1, the binding result with FLAG tagged TRAF2 [1] is on record as “binds”.

B2: SIVA2 1-58 (other)
chain: MPKRSCPFADVAPLQLKVRVSQRELSRGVCAERYSQEVFDPSGVASIACSSCVRAVDG
modifications: cysteine pairing not given here; also: His tag, sequence and position not given here
notes: HIS tagged deletion mutant lacking ring and zinc fingers; also called SIVA 1-58; SIVA2 N-terminus
As to B2, the binding result (in assay [2]; in the assay with FLAG tagged TRAF2 [3]) was “no binding” in each case.

B3: SIVA-C (C-terminal part of SIVA, amino acids 123-175 in SIVA1 or 58-110 in SIVA2) (other)
chain: KAVCGQCERALCGQCVRTCWGCGSVACTLCGLVDCSDMYEKVLCTSCAMFET
notes: Prey fragment from a human bone marrow two-hybrid library; in mammalian cells HIS tagged; also called SIVA-C terminus; C-terminal fragment of SIVA
In the case of B3, the binding result in assay [4] is listed as “binds”.
